Source: article PMC8805217, “Crystal structure of a hypothetical protein from Giardia lamblia” (Acta Crystallographica. Section F, Structural Biology …, 2022)

Molecular target: the molecule itself
Assay: crystal structure; X-ray, molecular replacement, 1.35 Å; sitting-drop vapor diffusion at 290 K, protein in 20 mM HEPES pH 7.0, 300 mM NaCl, 5% glycerol, 1 mM TCEP; reservoir 100 mM Tris pH 5.5, 25% PEG 3350, 200 mM ammonium acetate

B1: hypothetical protein from Giardia lamblia (GilaA.00312.a) (natural protein)
chain: GPGSMIYGILSKNLGMPTPTFLVCPDVVKFENVGQIAVVNGMVYLGGSVGIDKSGTLHKGLEEQTRQTFDNIRKCLEYANSGLDYIVSLNIFLSTSLSDSEEARFNELYREVFCVPATRPCRCCVRAQLQEGLLVEVVNVVAAQK
notes: hypothetical protein of Giardia lamblia GL50803_14299, 141 amino acids, amino acids 1-141 of UniProt A8BD71; Homotrimer in the crystal structure (PDB 3i3f); also called hypothetical G. lamblia protein; GL50803_14299; source: E. coli BL21(DE3)R3 Rosetta, purified (IMAC, 3C cleavage of the His tag, reverse IMAC, SEC); not shown: 6xHis, N-terminal, cleaved
stoichiometry N: 3
